The values below are quoted from earlier work in paper PMC3417354.

For orientation: Kd means the free concentration of one partner at which half of the binding sites on the other are occupied at equilibrium, for simple one-to-one binding.

The series concerns the target PCNA (Homo sapiens) (UniProt P12004).

Sequence of p21 peptide 141-160 (P38936 141-160): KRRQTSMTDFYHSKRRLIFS
Sequence of PCNA (Homo sapiens) (P12004 whole entry): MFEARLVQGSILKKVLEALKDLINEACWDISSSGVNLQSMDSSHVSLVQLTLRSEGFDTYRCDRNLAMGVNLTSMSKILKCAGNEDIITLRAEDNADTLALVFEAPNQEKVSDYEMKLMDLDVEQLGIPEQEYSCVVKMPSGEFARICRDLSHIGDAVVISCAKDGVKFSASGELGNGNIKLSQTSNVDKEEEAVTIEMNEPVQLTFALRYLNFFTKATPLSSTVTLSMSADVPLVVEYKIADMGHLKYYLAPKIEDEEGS

For the substance “p21 peptide 141-160 (from UniProt P38936)”, the Kd is 88 nM.
